Reference: patent US20190194350A1 (UNIVERSITAT STUTTGART, published 2019)

How the values were obtained:
[1] = biological target: T1, HER3 on HER3-expressing tumor cells (human, UniProt P21860 20-1342); assay: flow cytometry, A431 cells
T1 construct: Endogenous HER3 of human tumor cell lines (MCF-7, FaDu, BT474, A431, NCI-N87, A549, SKBR-3, Colo205, HCT-116, A375 and melanoma lines); also called cellular receptor HER3; cell surface expressed HER3

[2] = biological target: T1, HER3 on HER3-expressing tumor cells; assay: flow cytometry, MCF-7 cells; MCF-7 cells
[3] = biological target: T1, HER3 on HER3-expressing tumor cells; assay: flow cytometry, NCI-N87 cells
[4] = biological target: T1, HER3 on HER3-expressing tumor cells; assay: flow cytometry on BT474 cells, PE-labeled secondary antibody; the small table prints no unit, the axis is Concentration [nM] [panel BT474]
[5] = biological target: T2, HER3-Fc fusion protein (Fc fusion protein of the extracellular domain of human HER3, limits not stated at the … (human, UniProt P21860 20-643)); assay: quartz crystal microbalance (Attana), IgG 3-43 on chip, HER3-Fc as analyte
T2 construct: also called wild-type HER3-Fc; human HER3-Fc fusion protein; not shown: human Fc region

[6] = biological target: T1, HER3 on HER3-expressing tumor cells; assay: flow cytometry on MCF-7 cells, PE-labeled secondary antibody; the small table prints no unit, the axis is Concentration [nM] [panel MCF7]
[7] = biological target: T1, HER3 on HER3-expressing tumor cells; assay: flow cytometry, MCF-7 cells
[8] = biological target: T3, HER3 fragment aa 329-550 Fc fusion protein (human, UniProt P21860 329-550); assay: ELISA, coated HER3-Fc fragments
T3 construct: not shown: IgG1 Fc part

[9] = biological target: T4, HER3 fragment aa 359-587 Fc fusion protein (human, UniProt P21860 359-587); assay: ELISA, coated HER3-Fc fragments
T4 construct: not shown: IgG1 Fc part

[10] = biological target: T5, HER3 fragment aa 20-550 Fc fusion protein (DI-III plus part of DIV) (human, UniProt P21860 20-550); assay: ELISA, coated HER3-Fc fragments
T5 construct: not shown: IgG1 Fc part

[11] = biological target: T6, mouse HER3-Fc fusion protein (extracellular region of mouse HER3 fused to a human Fc region) (mouse, UniProt Q61526 20-641); assay: ELISA, coated mouse HER3-Fc, serial dilution of IgG 3-43, absorption at 450 nm
T6 construct: extracellular domain; not shown: human Fc region

[12] = biological target: T1, HER3 on HER3-expressing tumor cells; assay: flow cytometry, BT474 cells
[13] = biological target: T1, HER3 on HER3-expressing tumor cells; assay: flow cytometry, FaDu cells; FaDu cells
[14] = biological target: T1, HER3 on HER3-expressing tumor cells; assay: flow cytometry on A431 cells, PE-labeled secondary antibody; the small table prints no unit, the axis is Concentration [nM] [panel A431]
[15] = biological target: T7, HER3-His (HER3 aa 27-599 of the extracellular domain fused C-terminally with a hexahistidyl-tag) (human, UniProt P21860 27-599); assay: quartz crystal microbalance (Attana), IgG 3-43 on chip, HER3-his as analyte
T7 construct: also called soluble His-tagged HER3; His-tagged extracellular domain of HER3; not shown: C-terminal hexahistidyl-tag

[16] = biological target: T1, HER3 on HER3-expressing tumor cells; assay: flow cytometry on NCI-N87 cells, PE-labeled secondary antibody; the small table prints no unit, the axis is Concentration [nM] [panel NCI-N87]
[17] = biological target: T1, HER3 on HER3-expressing tumor cells; assay: flow cytometry, A549 cells
[18] = biological target: T1, HER3 on HER3-expressing tumor cells; assay: flow cytometry, FaDu cells; FaDu cells; Table 3 experiment, alongside scDb hu225x3-43-Fc
[19] = biological target: T8, Fc fusion protein containing HER3 DI-DII and a short part of DIII (aa 20-358) (human, UniProt P21860 20-358); assay: ELISA, coated HER3-Fc fragments at 10 µg/ml, anti-human Fab-HRP
T8 construct: not shown: IgG1 Fc part

[20] = biological target: T9, HER3 fragment aa 395-643 Fc fusion protein (part of DIII and the entire DIV) (human, UniProt P21860 395-643); assay: as above
T9 construct: not shown: IgG1 Fc part

HER3 DIV-Fc (aa 532-643) = biological target: T10, HER3 DIV-Fc (aa 532-643) (human, UniProt P21860 532-643); assay: as above
T10 construct: not shown: IgG1 Fc part

[21] = biological target: T11, Fc fusion protein containing HER3 DI-DIII (aa 20-531; lacking DIV) (human, UniProt P21860 20-531); assay: as above
T11 construct: also called DI-DIII Fc; not shown: IgG1 Fc part

[22] = biological target: T12, HER3 fragment aa 458-643 Fc fusion protein (part of DIII and the entire DIV) (human, UniProt P21860 458-643); assay: as above
T12 construct: not shown: IgG1 Fc part

[23] = biological target: T13, HER3 fragment aa 359-643 Fc fusion protein (part of DIII and the entire DIV) (human, UniProt P21860 359-643); assay: as above
T13 construct: not shown: IgG1 Fc part

HER3-ECD protein = biological target: T14, HER3-ECD protein (Homo sapiens (Human), UniProt P21860 20-643); assay: ELISA, immobilized HER3-ECD
T14 construct: also called receptor-ECD protein

[24] = biological target: T1, HER3 on HER3-expressing tumor cells; assay: flow cytometry, SKBR-3 cells; SKBR-3 cells
[25] = biological target: T2, HER3-Fc fusion protein (Fc fusion …); assay: quartz crystal microbalance (Attana), IgG 3-43 on chip, HER3-Fc as analyte (bivalent)
[26] = biological target: T1, HER3 on HER3-expressing tumor cells; assay: flow cytometry on A549 cells, PE-labeled secondary antibody; the small table prints no unit, the axis is Concentration [nM] [panel A549]
[27] = biological target: T1, HER3 on HER3-expressing tumor cells; assay: flow cytometry, FaDu cells (text; Table 3 prints 0.30)
[28] = biological target: T1, HER3 on HER3-expressing tumor cells; assay: flow cytometry, FaDu cells
[29] = biological target: T1, HER3 on HER3-expressing tumor cells; assay: flow cytometry on FaDu cells, PE-labeled secondary antibody; the small table prints no unit, the axis is Concentration [nM] [panel FADU]

T6 sequence (Q61526 20-641): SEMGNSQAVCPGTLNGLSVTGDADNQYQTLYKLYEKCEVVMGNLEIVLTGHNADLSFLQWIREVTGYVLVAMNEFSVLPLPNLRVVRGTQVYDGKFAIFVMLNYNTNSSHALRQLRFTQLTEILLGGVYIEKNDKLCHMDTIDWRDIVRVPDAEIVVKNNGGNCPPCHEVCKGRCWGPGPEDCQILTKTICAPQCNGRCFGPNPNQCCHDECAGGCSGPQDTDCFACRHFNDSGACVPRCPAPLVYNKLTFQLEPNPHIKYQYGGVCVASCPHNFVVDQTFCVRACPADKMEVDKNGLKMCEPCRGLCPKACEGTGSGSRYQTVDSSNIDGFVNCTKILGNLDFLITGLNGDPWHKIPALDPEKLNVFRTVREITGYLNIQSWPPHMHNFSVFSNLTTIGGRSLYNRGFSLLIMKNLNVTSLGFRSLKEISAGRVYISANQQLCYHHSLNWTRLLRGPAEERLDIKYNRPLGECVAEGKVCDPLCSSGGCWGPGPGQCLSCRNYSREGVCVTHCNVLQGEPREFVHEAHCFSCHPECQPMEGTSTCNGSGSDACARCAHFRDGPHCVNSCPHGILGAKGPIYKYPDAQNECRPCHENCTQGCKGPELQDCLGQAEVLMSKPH

B1: IgG 3-43 (antibody)
heavy: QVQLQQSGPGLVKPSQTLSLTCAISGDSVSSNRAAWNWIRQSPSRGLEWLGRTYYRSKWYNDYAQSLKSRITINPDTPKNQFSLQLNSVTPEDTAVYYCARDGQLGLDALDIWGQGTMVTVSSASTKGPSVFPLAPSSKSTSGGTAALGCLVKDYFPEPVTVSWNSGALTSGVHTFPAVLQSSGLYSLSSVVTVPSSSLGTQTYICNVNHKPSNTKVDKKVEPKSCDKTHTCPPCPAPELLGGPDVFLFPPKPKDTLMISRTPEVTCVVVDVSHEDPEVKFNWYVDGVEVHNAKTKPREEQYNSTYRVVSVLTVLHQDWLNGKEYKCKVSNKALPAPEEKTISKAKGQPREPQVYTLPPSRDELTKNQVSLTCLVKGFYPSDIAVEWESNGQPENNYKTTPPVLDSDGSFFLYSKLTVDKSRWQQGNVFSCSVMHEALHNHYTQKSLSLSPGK
light: QAGLTQPPAVSVAPGQTASITCGRDNIGSRSVHWYQQKPGQAPVLVVYDDSDRPAGIPERFSGSNYENTATLTISRVEAGDEADYYCQVWGITSDHVVFGGGTKLTVLCGQPKAAPSVTLFPPSSEELQANKATLVCLISDFYPGAVTVAWKADSSPVKAGVETTTPSKQSNNKYAASSYLSLTPEQWKSHRSYSCQVTHEGSTVEKTVAPTECS
notes: also called 3-43-IgG; 3-43 IgG
- EC50 [1]: 0.045 nM
- EC50 [2]: 0.021 nM
- EC50 [3]: 0.027 nM
- EC50 [4]: 0.0743 nM
- koff [5]: 0.000103 s⁻¹
- kon [5]: 468000 M⁻¹ s⁻¹
- EC50 [6]: 0.0365 nM
- EC50 [7]: 0.037 nM
- binding result [8]: no binding
- binding result [9]: no binding
- binding result [10]: no binding
- EC50 (read off the curve) [11]: ~3 nM
- EC50 [12]: 0.074 nM
- EC50 [13]: 0.003 nM
- EC50 [14]: 0.0445 nM
- koff [15]: 0.00696 s⁻¹
- kon [15]: 622000 M⁻¹ s⁻¹
- EC50 [16]: 0.0266 nM
- EC50 [17]: 0.053 nM
- EC50 [18]: 0.3 nM
- binding result [19]: no binding
- binding result [20]: no binding
- binding result (HER3 DIV-Fc (aa 532-643)): no binding
- binding result [21]: no binding
- binding result [22]: no binding
- binding result [23]: no binding
- EC50 (HER3-ECD protein): 0.33 nM
- EC50 [24]: 0.022 nM
- Kd [25]: 0.22 nM
- EC50 [26]: 0.0536 nM
- EC50 [27]: 0.006 nM
- EC50 [28]: 0.03 nM
- EC50 [29]: 0.0302 nM
